Usually stoichiometry N stands for a count of units in the complex or per binding partner.

This note sets out measurements from doi:10.1101/2024.04.12.589225.

In experiment [1] the target is 2nd_AtGDH-ΔT262-A263 (Aspergillus terreus). Kind of experiment: SEC. A general note: In gel filtration, larger molecules generally elute earlier.
Experiment [2] has the same target. Description: crystal structure.
Experiment [3] deals with 7th_AtGDH-R246S (Aspergillus terreus). Description: SEC.
Experiment [4] shares this target. Kind of experiment: crystal structure.
The target of experiment [5] is 8th_AtGDH-A216Q (Aspergillus terreus). Description: SEC.
Experiment [6] addresses AnGDH-Q216A (Aspergillus niger). Description: SEC.
The target of experiment [7] is AnGDH-S246R (Aspergillus niger). Description: SEC.
The target in experiment [8] is Aspergillus niger glutamate dehydrogenase, wild type (Aspergillus niger). Kind of experiment: cryo-EM structure.
Experiment [9] addresses Aspergillus terreus glutamate dehydrogenase, wild type (Aspergillus terreus). Description: cryo-EM structure.
The target is the same in experiment [10]. Kind of experiment: crystal structure.

Take 2nd_AtGDH-ΔT262-A263 (enzyme): the stoichiometry N in [1] and in [2] was 6 throughout.

On to 7th_AtGDH-R246S (enzyme), for which the stoichiometry N in experiment [3] and in [4] was 6 each time.

The substance 8th_AtGDH-A216Q (enzyme) came in with a stoichiometry N in [5] of 6.

The substance AnGDH-Q216A (enzyme) displayed a stoichiometry N in experiment [6] of 6.

In [7], AnGDH-S246R (enzyme) returned a stoichiometry N of 6.

For the substance “Aspergillus niger glutamate dehydrogenase, wild type (enzyme)”, the stoichiometry N in experiment [8] was 6.

As to “Aspergillus terreus glutamate dehydrogenase, wild type (enzyme)”, the stoichiometry N in experiment [9] and in experiment [10] was 6 throughout.
